Reference: PMC9897555 (2023)

Target: Spike protein S1 C-terminal domain 319-674 (Severe acute respiratory syndrome …, UniProt P0DTC2)
Experiment: flow

B1: LRRC15 (protein)
chain: YHGCPSECTCSRASQVECTGARIVAVPTPLPWNAMSLQILNTHITELNESPFLNISALIALRIEKNELSRITPGAFRNLGSLRYLSLANNKLQVLPIGLFQGLDSLESLLLSSNQLLQIQPAHFSQCSNLKELQLHGNHLEYIPDGAFDHLVGLTKLNLGKNSLTHISPRVFQHLGNLQVLRLYENRLTDIPMGTFDGLVNLQELALQQNQIGLLSPGLFHNNHNLQRLYLSNNHISQLPPSVFMQLPQLNRLTLFGNSLKELSPGIFGPMPNLRELWLYDNHISSLPDNVFSNLRQLQVLILSRNQISFISPGAFNGLTELRELSLHTNALQDLDGNVFRMLANLQNISLQNNRLRQLPGNIFANVNGLMAIQLQNNQLENLPLGIFDHLGKLCELRLYDNPWRCDSDILPLRNWLLLNQPRLGTDTVPVCFSPANVRGQSLIIINVNVAVPSVHVPEVPSYPETPWYPDTPSYPDTTSVSSTTELTSPVEDYTDLTTIQVTDDRSVWGMTQAQSG
Kd: ~260 nM
